One assay deals with APEG-1 (Homo sapiens) (UniProt Q15772). The assay can be described thus: analytical ultracentrifugation (sedimentation equilibrium).
The target of assay [1] is ΔAPEG-1, truncated Aortic Preferentially Expressed Protein-1 (15-113) (human). The assay can be described thus: AUC; sedimentation equilibrium, dimer to monomers; 0 mM NaCl (salt series).
The target is the same in assay [2]. Description: AUC; sedimentation equilibrium, dimer to monomers; 15 mM Tris-HCl pH 7.4, 0.1 M NaCl, 0.1 mM EDTA, 0.2% NaN3, 10°C; Kd from concentration-dependent Mw.
The target of assay [3] is Aortic Preferentially Expressed Protein-1 (APEG-1), full-length construct (2-113) (human). Described as above.

Aortic Preferentially Expressed Protein-1 (APEG-1), full-length construct (2-113) (natural protein), sequence (Q15772 2-113): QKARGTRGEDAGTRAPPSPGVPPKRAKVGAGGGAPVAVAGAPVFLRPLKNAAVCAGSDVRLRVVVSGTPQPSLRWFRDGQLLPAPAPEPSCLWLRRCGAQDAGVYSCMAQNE

On to APEG-1, Q15772, for which, in the assay with APEG-1 (Homo sapiens), the Kd amounted to 2 µM.
As for “ΔAPEG-1, truncated Aortic Preferentially Expressed Protein-1 (15-113) (domain or fragment)”, in assay [1], the Kd lay within 2 to 200 µM. In assay [2], the dissociation constant (Kd) was found to be 20 µM and the stoichiometry N came out at 2.
In assay [3], “Aortic Preferentially Expressed Protein-1 (APEG-1), full-length construct (2-113) (natural protein)” showed a Kd of 20 µM and a stoichiometry N of 2.

One may read the Kd as the free concentration of one partner at which half of the binding sites on the other are occupied at equilibrium, for simple one-to-one binding. By stoichiometry N is commonly meant the number of molecules, sites or subunits per partner or assembly.

These data come from publication PMC1352370.
